Measurements reported in patent US20160208004A1.
Several values for one entry are separate records, joined by “and”; a condition that tells them apart may be missing. Equal values may be shown once.

How the values were obtained:
Assay in all cases: cell-based or functional assay
[1] = molecular target: human IL-17RA (human) (UniProt Q96F46)
[2] = molecular target: human IL-25 (human) (UniProt Q9H293)
[3] = molecular target: human IL-17RB (human) (UniProt Q9NRM6)
Chain of human IL-17RB (human) (Q9NRM6 18-502): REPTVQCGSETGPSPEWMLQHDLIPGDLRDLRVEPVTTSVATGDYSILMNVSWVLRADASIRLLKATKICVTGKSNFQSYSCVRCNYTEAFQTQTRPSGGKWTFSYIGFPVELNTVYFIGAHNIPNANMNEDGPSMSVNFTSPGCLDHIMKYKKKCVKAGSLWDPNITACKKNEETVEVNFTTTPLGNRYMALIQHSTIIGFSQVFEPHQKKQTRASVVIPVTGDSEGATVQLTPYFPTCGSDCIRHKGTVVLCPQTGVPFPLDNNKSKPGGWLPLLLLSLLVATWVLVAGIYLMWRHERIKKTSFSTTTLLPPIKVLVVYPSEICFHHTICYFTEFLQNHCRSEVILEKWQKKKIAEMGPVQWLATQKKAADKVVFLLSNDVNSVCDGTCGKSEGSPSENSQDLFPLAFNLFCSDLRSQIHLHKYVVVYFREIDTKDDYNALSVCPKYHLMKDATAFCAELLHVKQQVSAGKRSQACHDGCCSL

Chain of human IL-25 (human) (Q9H293 33-177 limits assumed): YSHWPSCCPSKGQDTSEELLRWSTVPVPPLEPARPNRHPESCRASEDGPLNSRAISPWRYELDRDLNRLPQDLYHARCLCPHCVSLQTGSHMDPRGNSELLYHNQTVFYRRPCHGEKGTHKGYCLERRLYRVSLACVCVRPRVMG

## MAB1771: anti-HuIL-17RA MuIgG2b (R&D Systems) (antibody)
[1]
  % Inhibition of IL-5 production, TSLP treated human PBMC + IL-2 + IL-25; inhibitor 10 micrograms/mL: 24% and 33%

## HuIL-17RB: HIS (extracellular region of human IL-17RB fused to poly HIS) (from UniProt Q9NRM6 18-292) (receptor)
[2]
  % Inhibition of IL-5 production, TSLP treated human PBMC + IL-2 + IL-25; inhibitor 10 micrograms/mL: 67%

## MAB1207: anti-HuIL-17RB MuIgG2b (R&D Systems) (antibody)
[3]
  % Inhibition of IL-5 production, TSLP treated human PBMC + IL-2 + IL-25; inhibitor 10 micrograms/mL: 13%
